Test results from the DeepSol protein solubility set.

Assay: soluble on expression in E. coli; label from the status in PepcDB or PDB records

Row | Sequence | soluble on expression in E. coli
1 | MAHHHHHHMLKCVSRVFLGAKTVPLNPHVPFKLHTAGRDDLPPIPTTATYEPEKIKENLAMMIRIRRVEALADQSYKLKKIRGFCHLCIGQEAIPVGMENVLSRGDPVVTGYRDHGLFMTRGGTIEELFAELFGREGGCSKGKGGSMHMYRVKENFYGGNGIVGAQAPLGAGLAWRYALENRDKPSNVAVTFYGDGAANQGQVFEAMNIAALQRIPVIFCCENNHYGMGTREDRAAYQPQMYRRGDYIPGLRVDGMDVLAVQEGTRWAKEWCLAGKGPVVLEMDSYRYMGHSMSDPDSQYRTKNDIQEVRRTRDCIEKMKEFVVSEGIMTVEEIKQMEKDVKKEVDKELPPAEKQAITPLKELFTDIYCGEQYEHRTTQGTVYAKP | not soluble
2 | MVGRRDGPFKPPGGLLRAFLVRVDAGHLRTVSYSTVLASTSAHSSALPPRRSPPMNAPAKSLLDIDAFPLVQVREMPRELADVERWLEEVEALLAVERDFALVYPPLPQETAEGDQQARKRLVLWLKENRQRFVEHCRGILLSANGQPDNLADLQQLAPVLQAVYGPPVSVAPDLASARGMAKALLSGPATGMNW | not soluble
3 | GPPPPPGPPPPPGPPPPPGL | soluble
4 | MGSDKIHHHHHHMMERLIIDDSRFNFVPKVKTAYKAPPGLDEKLIMEISRAKDEPEWMLKHRLESLKVFNEWHNPRFGVDISGLDLGKIVSYIKPDAKKSTSWEEVPEEVKEAFDKLGIPEAERKYLAGVGAQLDSEIVYQNMKKELEKMGVIFLDMESAVREYPDLVKKYFMKLVPITDHKFAALHGAIWSGGTFLYVPAGVKIPMPLQAYFLMSNPGMGQFEHTIIVAEEGSEVTFIEGCSAPRYNIINLHAGMVEIYVKKGAKVKYLTIQNWSKNTYNLNTKRSIVDEEGSMTWVSGSLGSQKTMLYPMTILKGKGARAESMSITYAGPGQHMDTGSKVVHLAPYTSSIVSAKSISLGGGWAFYRGLLKITKEAVKSKASVECAALMLDNRSKSDTVPIIEVETDRADVGHEARIGRIGEDQIFYLMSRGLSEQEAKAMIVKGFVEPVVKELPFEYAVELNKLLELEIEKSIG | not soluble
5 | MSEKFEHYYTVEPTSKLKVREARLVLKNGHEYIFKTPSGVYSYGKIDKATQVLLENLKVHGKKVLDLGCGYGVIGIVLKKEYPDLEVYMSDINKRAVEFAKINAKDHNVEVDIRWGNLYEPWEDMKFDMIVCNPPIVAGKKVWMEIVKSAPEFLEEGGSLQIVAYHNKGGRRIRDFMKEVFGNVEELCKTGGIRVYRSVKGLKEDEDNAE | not soluble
6 | PDITATPAWDALARHHDQIGNTHLRQFFADDPGRGRELTVSVGDLYIDYSKHRVTRETLALLIDLARTAHLEERRDQMFAGVHINTSEDRAVLHTALRLPRDAELVVDGQDVVTDVHAVLDAMGAFTDRLRSGEWTGATGKRISTVVNIGIGGSDLGPVMVYQALRHYADAGISARFVSNVDPADLIATLADLDPATTLFIVASKTFSTLETLTNATAARRWLTDALGDAAVSRHFVAVSTNKRLVDDFGINTDNMFGFWDWVGGRYSVDSAIGLSLMTVIGRDAFADFLAGFHIIDRHFATAPLESNAPVLLGLIGLWYSNFFGAQSRTVLPYSNDLSRFPAYLQQLTMESNGKSTRADGSPVSADTGEIFWGEPGTNGQHAFYQLLHQGTRLVPADFIGFAQPLDDLPTAEGTGSMHDLLMSNFFAQTQVLAFGKTAEEIAADGTPAHVVAHKVMPGNRPSTSILASRLTPSVLGQLIALYEHQVFTEGVVWGIDSFDQWGVELGKTQAKALLPVITGAGSPPPQSDSSTDGLVRRYRTERGRAGLE | soluble
7 | MSLGGPNADAQRANQRNVKKPNTQTKIRLPESVRTKKPVDMDVAPVRQSSRDEIRYAANELDTFIERELLAEGIAAEELASDEVFLRRIYLDVAGRIPTLQEAEQFLSSKSSDRREELIDQLLSSPDYVSHTYNWWADTLRLVDRPQPNLVADPYNGYIKESIAENKPYDKWVYEMLTADGKVWDNPAVGFQLRDDGMPLPYIDNTVRVFLGTQIGCAQCHDHPFDEWSQYQFYQLAAFTAGTSTRMRKGDPGYEKTNPANDLINEGKKRYEKGRVPGEFQRIARANTYIVSERPRRLRLPHDYAYRDAKPKDFVEPKVLWGEIPSSAAKSTPREQFAAWVTSPENPRFSQTVVNRLWKRLMGVGFVDPVDDFRDENPCVNEAAMDYLCKELVRRGFDLKELTRIVLYSQTYQRKAVDYDITDGDLYYFPGPTVRRMTAEQVWDSILTLAVDNPWPFQRPTAKEMKPVMDLDFSKVDFEEVQRRSAKFKETYFASTYKRNLNQHAYQRNVLCRASELPAPLPADHFLRQFGQGDREVINGSQDEATVPQILAMFNGPITHVMLEPGSALVDNVLEVNNVKNRIDAIFLSVLTRKPSTEDRILASRELSSQNQTGVGYGNIIWALLNTREFLFVQEGHHHHHH | not soluble
8 | MSLVERARLAEGGGWDCHFHVFDASRYTLAAGSAYQPEDASLAAFRGVCRARGIGRAVLVHPSVYGADHSSYEDALAANGDWLRGVAVVYPDEATTPDARIEHWDLLGTAGTRINRLFPGAPQHPERIVERVKPFGWHVQVLTDIVEDIGLVRRIAARDVPVVVDHFGHHPHAQLLRSAGWQDLIALVREGAAWVKLSAPYRVGAQGPAWPGAQALVDQLVQANPRQLVWGSDWPHPPDHRHPFPAPDQAAIGATIAQWLPDAQLRRQVMELNPLRLYGGTRAAGREGHHHHHH | soluble
9 | MQVISPSSPAPRFAGKERFSEVYGELNDDFGSKLKISSKEEENRDDDSWWNQNGTDKDDEGREEDFSFASVNADNSPITADEAFEDGQIRPVYPLFNRNIFFDDPEEKTLRSPLKKLFVESTTTEEEEEESDTVGPYCSWTNRTVEQASPETCRKSNSTGFSKLWRFRDLVLRSNSDGKDAFVFLSNGSSSTSSTSSTAARLSGVVKSSEKGKEKTKTDKKKDKMRTKSAHEKLYMRNRAMREEGKRRSYLPYKHVGFFTNVNGLTRNVHPY | soluble
10 | MQAIQNTQEIRRQADLTKAQWWLQQLCETDRMIVGRKRRDVQKLIHRLLSEPKGTSVPKSSPVNRLFPHPLSFELDPKWPAMDSFYNRISAAMRTIAPKKTASQQVVISCKQLKPAKLDMKTLRQVMEHELAELGDEKLQRMVCSFCYRAQPTHRLYTIEDVIKCQECWRGPFPSRTIFDALITDVAEKWAEKVAKRVECLYGNWDEKLTPMVRMLQNNVLLSEDIAALLRTCTDPHEFKEACEVIIITTIVFYLEYVDFRRSCEALMAIKPTVTYGQLFEIFQIYFPNRAKGIKTGDFL | not soluble
11 | MKKIAVFADVQNLYYTVRQAYGCHFNYAALWADISKRGEIVHAFAYAIDRGDSKQQQFQQILRNLGFTVRLKPYIQRSDGSAKGEWDVGITIDIMDFAPQVDEVVLASGDGDFDMLLDRVISKHGVEAVAYGVPGLTANSLIRAASRYVPIEGALL | soluble
12 | DAFTDQKIRQRYADLPGELHIIELEKDKNGLGLSLAGNKDRSRMSIFVVGINPEGPAAADGRMRIGDELLEINNQILYGRSHQNASAIIKTAPSKVKLVFIRNEDAVNQMA | soluble
13 | ANQQTSGKVLYEGKEFDYVFSIDVNEGGPSYKLPYNTSDDPWLTAYNFLQKNDLNPMFLDQVAKFIIDNTKGQMLGLGNP | soluble
14 | ELEKSEELYKSLLEDASDAIVVVDENEIVKMVNKMAEEFFGHSSEEVVGLPLSRMLVLVKTHNIPIVYNFFQEVGKGRHVAEEIRFSRVEGEQVVGLIHANTVTIGSERLIQAIIRDVT | not soluble
15 | MIRTLELAPHIEGGYFRQTKKASDTINLAGKGRALYTSIYFLLEETNPSHFHRLTADEIWYFHAGSPLTVHMITADGHYEAVTLGLDISKGQQLHYCVPKGTIWGSTVDKDDALVSCLVAPGFEFEDFELFERVDLLATYPEHKEMIERLTRYLEHHHHHH | not soluble
16 | MALSKLNHLYMAVVADHSKRPHHHGQLDGVEAVQLNNPTCGDVISLTVKFDEDKIEDIAFAGNGCTISTASSSMMTDAVIGKSKEEALALADIFSEMVQGQENPAQKELGEAELLAGVAKFPQRIKCSTLAWNALKEAIKRSANAQHLTDQNVKEGKNV | soluble
